Literature values, collected in US20120082669A1, “HUMAN EPO MIMETIC HINGE CORE MIMETIBODIES, COMPOSITIONS, METHODS AND USES FOR PREVENTING OR TREATING GLUCOSE INTOLERANCE RELATED CONDITIONS OR RENAL DISEASE ASSOCIATED ANEMIA” (priority 2006, published 2012).

How the values were obtained:
[1] = cited from earlier work
[2] = system: patients with end-stage renal disease; settings: patients with end-stage renal disease treated with EPO; cited from earlier work
[3] = biological target: T1, EPO receptor (Homo sapiens, UniProt P19235); settings: cited from earlier work
T1 sequence (P19235 25-508): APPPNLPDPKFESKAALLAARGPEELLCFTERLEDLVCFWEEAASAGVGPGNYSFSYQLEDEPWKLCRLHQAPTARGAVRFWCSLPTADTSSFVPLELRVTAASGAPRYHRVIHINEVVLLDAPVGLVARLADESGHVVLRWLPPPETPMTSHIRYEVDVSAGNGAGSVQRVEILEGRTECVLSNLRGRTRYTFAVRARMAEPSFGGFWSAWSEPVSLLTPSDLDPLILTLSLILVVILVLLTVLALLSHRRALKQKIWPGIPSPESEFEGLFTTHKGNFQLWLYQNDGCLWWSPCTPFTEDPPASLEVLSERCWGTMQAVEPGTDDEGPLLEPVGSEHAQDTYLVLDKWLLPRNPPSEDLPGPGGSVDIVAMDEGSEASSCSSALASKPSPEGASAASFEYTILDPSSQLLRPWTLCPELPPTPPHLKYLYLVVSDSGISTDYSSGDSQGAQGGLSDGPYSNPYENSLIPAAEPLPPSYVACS

[4] = biological target: T1, EPO receptor; settings: relative to HuEPO; cited from earlier work
[5] = serum; cited from earlier work

| Substance | time to peak serum levels ([1]; after subcutaneous administration) | circulating half-life ([1]; intravenously administered, patients with CRF) | time detectable levels of plasma erythropoietin are maintained ([1]; within the therapeutic dose range) | blood triglyceride, total cholesterol and LDL levels [2] | insulin resistance [2] | competition with 125I-labeled EPO for binding to the EPO receptor [3] | activity, fold less than HuEPO [4] | ex-vivo half-life [5] |
| --- | --- | --- | --- | --- | --- | --- | --- | --- |
| Erythropoietin: glycoprotein hormone of 165 amino acids and four carbohydrate chains, primary regulator of erythropoiesis | 5 to 24 h | 3 to 4 h | at least 24 hours | concomitant improvement | improve insulin resistance |  |  |  |
| GGTYSCHFGPLTWVCKPQGG [EMP-1] |  |  |  |  |  | competes | 10,000 to 100,000 fold | 8 h |
